B1: Emerin (Homo sapiens), P50402 (parent)
chain: MDNYADLSDTELTTLLRRYNIPHGPVVGSTRRLYEKKIFEYETQRRRLSPPSSSAASSYSFSDLNSTRGDADMYDLPKKEDALLYQSKGYNDDYYEESYFTTRTYGEPESAGPSRAVRQSVTSFPDADAFHHQVHDDDLLSSSEEECKDRERPMYGRDSAYQSITHYRPVSASRSSLDLSYYPTSSSTSFMSSSSSSSSWLTRRAIRPENRAPGAGLGQDRQVPLWGQLLLFLVFVIVLFFIYHFMQAEEGNPF
partner: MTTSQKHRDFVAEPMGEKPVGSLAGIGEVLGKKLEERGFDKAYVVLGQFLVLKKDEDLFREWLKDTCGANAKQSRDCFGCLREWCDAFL
B2: Low density lipoprotein receptor adapter protein 1 (Homo sapiens), Q5SW96 (parent)
chain: MDALKSAGRALIRSPSLAKQSWGGGGRHRKLPENWTDTRETLLEGMLFSLKYLGMTLVEQPKGEELSAAAIKRIVATAKASGKKLQKVTLKVSPRGIILTDNLTNQLIENVSIYRISYCTADKMHDKVFAYIAQSQHNQSLECHAFLCTKRKMAQAVTLTVAQAFKVAFEFWQVSKEEKEKRDKASQEGGDVLGARQDCTPSLKSLVATGNLLDLEETAKAPLSTVSANTTNMDEVPRPQALSGSSVVWELDDGLDEAFSRLAQSRTNPQVLDTGLTAQDMHYAQCLSPVDWDKPDSSGTEQDDLFSF
partner: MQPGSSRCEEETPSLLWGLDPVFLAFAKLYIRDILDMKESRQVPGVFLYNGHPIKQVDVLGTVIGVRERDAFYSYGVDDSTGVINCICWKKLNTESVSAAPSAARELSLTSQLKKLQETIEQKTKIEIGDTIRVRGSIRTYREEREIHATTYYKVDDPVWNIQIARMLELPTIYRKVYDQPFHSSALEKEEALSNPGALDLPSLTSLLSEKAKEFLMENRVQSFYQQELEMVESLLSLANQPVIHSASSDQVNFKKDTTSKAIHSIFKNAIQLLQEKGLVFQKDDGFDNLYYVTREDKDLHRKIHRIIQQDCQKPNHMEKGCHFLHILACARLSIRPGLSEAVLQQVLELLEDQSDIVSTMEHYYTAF
B3: DNA mismatch repair protein Mlh1 (Homo sapiens), P40692 (parent)
chain: MSFVAGVIRRLDETVVNRIAAGEVIQRPANAIKEMIENCLDAKSTSIQVIVKEGGLKLIQIQDNGTGIRKEDLDIVCERFTTSKLQSFEDLASISTYGFRGEALASISHVAHVTITTKTADGKCAYRASYSDGKLKAPPKPCAGNQGTQITVEDLFYNIATRRKALKNPSEEYGKILEVVGRYSVHNAGISFSVKKQGETVADVRTLPNASTVDNIRSIFGNAVSRELIEIGCEDKTLAFKMNGYISNANYSVKKCIFLLFINHRLVESTSLRKAIETVYAAYLPKNTHPFLYLSLEISPQNVDVNVHPTKHEVHFLHEESILERVQQHIESKLLGSNSSRMYFTQTLLPGLAGPSGEMVKSTTSLTSSSTSGSSDKVYAHQMVRTDSREQKLDAFLQPLSKPLSSQPQAIVTEDKTDISSGRARQQDEEMLELPAPAEVAAKNQSLEGDTTKGTSEMSEKRGPTSSNPRKRHREDSDVEMVEDDSRKEMTAACTPRRRIINLTSVLSLQEEINEQGHEVLREMLHNHSFVGCVNPQWALAQHQTKLYLLNTTKLSEELFYQILIYDFANFGVLRLSEPAPLFDLAMLALDSPESGWTEEDGPKEGLAEYIVEFLKKKAEMLADYFSLEIDEEGNLIGLPLLIDNYVPPLEGLPIFILRLATEVNWDEEKECFESLSKECAMFYSIRKQYISEESTLSGQQSEVPGSIPNSWKWTVEHIVYKALRSHILPPKHFTEDGNILQLANLPDLYKVFERC
partner: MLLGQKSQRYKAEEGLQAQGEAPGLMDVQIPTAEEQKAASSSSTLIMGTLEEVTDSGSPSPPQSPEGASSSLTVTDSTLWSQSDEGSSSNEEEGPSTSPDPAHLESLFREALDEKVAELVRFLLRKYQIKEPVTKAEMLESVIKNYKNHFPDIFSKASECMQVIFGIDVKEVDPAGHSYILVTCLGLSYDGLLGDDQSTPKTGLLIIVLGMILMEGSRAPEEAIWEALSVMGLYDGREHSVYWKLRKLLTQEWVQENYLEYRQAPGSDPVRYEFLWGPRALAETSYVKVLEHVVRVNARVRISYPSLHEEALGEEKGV
B4: Torsin-1A (Homo sapiens), O14656 (parent)
chain: MKLGRAVLGLLLLAPSVVQAVEPISLGLALAGVLTGYIYPRLYCLFAECCGQKRSLSREALQKDLDDNLFGQHLAKKIILNAVFGFINNPKPKKPLTLSLHGWTGTGKNFVSKIIAENIYEGGLNSDYVHLFVATLHFPHASNITLYKDQLQLWIRGNVSACARSIFIFDEMDKMHAGLIDAIKPFLDYYDLVDGVSYQKAMFIFLSNAGAERITDVALDFWRSGKQREDIKLKDIEHALSVSVFNNKNSGFWHSSLIDRNLIDYFVPFLPLEYKHLKMCIRVEMQSRGYEIDEDIVSRVAEEMTFFPKEERVFSDKGCKTVFTKLDYYYDD
partner: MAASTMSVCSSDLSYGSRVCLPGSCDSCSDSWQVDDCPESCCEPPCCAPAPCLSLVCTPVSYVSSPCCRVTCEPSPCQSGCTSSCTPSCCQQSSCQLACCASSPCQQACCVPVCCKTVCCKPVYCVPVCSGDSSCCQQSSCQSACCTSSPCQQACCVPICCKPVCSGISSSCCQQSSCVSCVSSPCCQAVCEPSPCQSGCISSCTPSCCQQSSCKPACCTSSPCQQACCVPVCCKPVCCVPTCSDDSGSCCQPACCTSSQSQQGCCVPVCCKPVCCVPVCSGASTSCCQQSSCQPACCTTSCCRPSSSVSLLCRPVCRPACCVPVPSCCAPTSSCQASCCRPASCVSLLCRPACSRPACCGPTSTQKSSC

Variants of: B1
Details: with baf_human BANF1, O75531
For D72V, the “effect of a mutation on the interaction” value was “with no effect”. With P183H the “effect of a mutation on the interaction” value was “with no effect”. In the case of P183T, the “effect of a mutation on the interaction” value is reported as “with no effect”. For S54F, the “effect of a mutation on the interaction” value was “with no effect”.

Variants of: B2
Details: with stn1_human STN1, Q9H668
With R238W the “effect of a mutation on the interaction” value was “with no effect”.

Variants of: B3
Details: with maga8_human MAGEA8, P43361
For S44F, the “effect of a mutation on the interaction” value was “disrupting interaction strength”. G244D was tested, and the “effect of a mutation on the interaction” value was “with no effect”. For R472I, the “effect of a mutation on the interaction” value was “with no effect”.

Variants of: B4
Details: with kr107_human KRTAP10-7, P60409
D216H was tested, and the “effect of a mutation on the interaction” value was “with no effect”. For R288Q, the “effect of a mutation on the interaction” value was “with no effect”.
